{"source": "paper PMC2655680", "about": "(Nucleic Acids Research, 2009)", "binders": {"B1": {"name": "XRCC1 peptide YAGpSpTDENpTDpSE, phosphorylated on Ser518, Thr519, Thr523 and Ser525 (peptide)", "peptide": "YAG[pS][pT]DEN[pT]D[pS]E"}, "B2": {"name": "XRCC1 peptide YAGpSpTDENTDSE, phosphorylated on Ser518 and Thr519 (peptide)", "peptide": "YAG[pS][pT]DENTDSE"}}, "target": "full-length human PNK (human, UniProt Q96T60 1-521)", "experiment": "ITC", "note": "Non-standard residues stand in square brackets, D forms with d. No end group written: not given here. pT = C[C@@H](OP(=O)(O)O)[C@H](N)C(=O)O; pS = N[C@@H](COP(=O)(O)O)C(=O)O"}
{"binder": "B1", "values": [{"measurement": "stoichiometry N", "value": 0.49}]}
{"binder": "B2", "values": [{"measurement": "stoichiometry N", "value": 0.61}]}
